Target: CAR (CXADR Fc chimera full-length extracellular D1D2 domain) (UniProt P78310)
Test: SPR; Biacore T-200; CAR-Fc amine-coupled to a CM5 chip (~1,500 response units); analytes in twofold dilutions 2000 to 7.81125 nM, injected 120 s at 30 uL/min; 25°C; 10 mM phosphate buffer pH 7.4, 140 mM NaCl, 0.27 mM KCl, 0.05% Tween20; regeneration with 10 mM glycine pH 1.5; three independent experiments

Sequence of CAR (CXADR Fc chimera full-length extracellular D1D2 domain) (P78310 20-237, change not shown): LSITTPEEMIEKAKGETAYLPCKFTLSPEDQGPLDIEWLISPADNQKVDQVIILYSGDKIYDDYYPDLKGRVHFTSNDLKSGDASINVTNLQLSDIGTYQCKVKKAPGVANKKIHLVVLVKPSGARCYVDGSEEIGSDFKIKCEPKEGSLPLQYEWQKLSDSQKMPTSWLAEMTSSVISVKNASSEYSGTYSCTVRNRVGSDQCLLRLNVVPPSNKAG
Sequence of HAdV-F41 long fiber knob (domain or fragment) (P14267 363-562 limits assumed): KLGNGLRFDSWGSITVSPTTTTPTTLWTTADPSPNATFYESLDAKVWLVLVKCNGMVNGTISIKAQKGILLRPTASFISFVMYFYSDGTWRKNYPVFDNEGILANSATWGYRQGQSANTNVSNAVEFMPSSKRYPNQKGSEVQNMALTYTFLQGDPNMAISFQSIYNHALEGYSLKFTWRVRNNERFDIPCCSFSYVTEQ
Sequence of HAdV-F40 long fiber knob (domain or fragment) (P18047 348-547 limits assumed): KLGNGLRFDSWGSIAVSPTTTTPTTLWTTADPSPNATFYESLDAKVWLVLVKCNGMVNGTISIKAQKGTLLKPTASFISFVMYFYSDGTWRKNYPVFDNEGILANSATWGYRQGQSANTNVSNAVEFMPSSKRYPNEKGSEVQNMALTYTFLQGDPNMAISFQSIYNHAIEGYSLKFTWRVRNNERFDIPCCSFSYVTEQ

Substance: HAdV-F40 long fiber knob (domain or fragment)
- Kd: 25.5 nM

Substance: HAdV-F41 long fiber knob (domain or fragment)
- Kd: 6.34 nM
